According to patent publication US20150266968A1 (COMPLIX, published 2015):

Experiments:
[1] = molecular target: T1, GST-tagged recombinant human MCL-1 (residues 172 to 327) (human, UniProt Q07820 172-327); test: ELISA: Alphabody (500 nM) captured by immobilized anti-V5 antibody, five-fold dilutions of GST-MCL-1, detection with anti-GST-HRP, OD read at 492 nm and 630 nm
T1 construct: Produced in E. coli as an N-terminal GST fusion and purified using the GST-tag; also called recombinant MCL-1; GST-MCL-1; not shown: N-terminal GST tag and any linker or cleavage site between GST and MCL-1

[2] = molecular target: T1, GST-tagged recombinant human MCL-1 …; test: ELISA: Alphabody (500 nM) captured by immobilized anti-V5 antibody, five-fold dilutions of GST-tagged recombinant protein, detection with anti-GST-HRP, OD read at 492 nm and 630 nm
Protocol: (§1) FIG. 13: Binding of recombinant BCL-2 family proteins to Alphabody AB1_pan_hiKR3-V5. Alphabody (500 nM) was captured by immobilized anti-V5 antibody (5 microg/ml) to a microtiterplate. Binding of five-fold dilutions of Glutathione S transferase (GST)-tagged recombinant BCL-2 family proteins MCL-1, BCL-XL and BCL-2a was detected using a anti-GST antibody conjugated to Horse Radish Peroxidase. Plates were read at 492 nm and 630 nm.
(§2) Maxisorp Nunc plates were coated with 100 microl anti-V5 antibody (5 microg/ml) in carbonate buffer pH 9.6 overnight at 4° C. The next day, plates were washed 3 times with Tris Buffered Saline containing 0.05% Tween 20 (TBST) and blocked with TBS containing 0.1% BSA and 0.5% gelatin for 2 h at 37° C. After washing plates 5 times with TBST, 500 nM AB1_pan_hiKR3-V5 Alphabody was added to the plates for 2 h at RT while shaking. Plates were washed 10 times with TBST and five-fold dilutions of Glutathione S transferase (GST) tagged recombinant BCL-2 family proteins (MCL-1, BCL-XL and BCL-2a) were added and further incubated for 2 h at RT while shaking. Binding of GST-tagged recombinant BCL-2 family proteins was detected using an anti-GST antibody conjugated to Horse Radish Peroxidase. […] Signals indicative for specific binding of AB1_pan_hiKR3-V5 to the particular BCL-2 family recombinant protein were read at 492 nm and 630 nm.

[3] = molecular target: T2, GST-tagged recombinant human BCL-XL with a C terminal deletion of 24 amino acids (human, UniProt Q07817 1-209); test: as above
T2 construct: domain: BCL-XL with a C terminal deletion of 24 amino acids; Produced in E. coli as an N-terminal GST fusion; also called GST-BCL-XL; not shown: Glutathione S Transferase (GST) tag at the N-terminus
Protocol: as §1, §2

[4] = molecular target: T2, GST-tagged recombinant human BCL-XL …; test: ELISA: Alphabody (500 nM) captured by immobilized anti-V5 antibody, five-fold dilutions of GST-BCL-XL, detection with anti-GST-HRP, OD read at 492 nm and 630 nm
Protocol: as §1, §2

T1 sequence (Q07820 172-327 limits assumed): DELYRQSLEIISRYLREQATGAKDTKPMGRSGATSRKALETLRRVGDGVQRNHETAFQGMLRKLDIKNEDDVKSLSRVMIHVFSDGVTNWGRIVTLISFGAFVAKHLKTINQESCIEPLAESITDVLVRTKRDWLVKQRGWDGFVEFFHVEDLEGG
T2 sequence (Q07817 1-209, stated change not applied): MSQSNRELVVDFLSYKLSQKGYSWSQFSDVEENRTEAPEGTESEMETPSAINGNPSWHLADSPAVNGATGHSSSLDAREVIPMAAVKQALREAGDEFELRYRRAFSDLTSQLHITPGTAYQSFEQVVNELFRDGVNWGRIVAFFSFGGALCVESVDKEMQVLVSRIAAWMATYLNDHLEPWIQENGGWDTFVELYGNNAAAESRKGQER

B1: Alphabody AB1_A2aF_hiKR3-V5 (designed binder)
chain: MSIQQIQKQFKRIQKQIKRIEKQIKRMTGGSGGSGGMSIEEITKQIAAIQLRIVGDQVQIYAMTGGSGGGSGGGSGGGSGGSIEEIKKSIRAIQKEIKKIQKKIKKMTPHHHHHHHHHHGKPIPNPLLGLDST
EC50 (read off the curve) [1]: ~1 nM

B2: Alphabody AB1_pan_hiKR3-V5 (designed binder)
chain: MSIEEIQKQFKRIQKQIKRIAKQIKRMTGGSGGSGGMSIEEIAAQIAAIQLRIIGDQFNIYYMTGSGGGGSGGSIEEIKKSIRAIQKEIKKIQKKIKKMTPHHHHHHHHHHGKPIPNPLLGLDST
notes: captured on the plate by anti-V5 antibody in the ELISA
EC50 (read off the curve) [2]: ~2 nM | EC50 (read off the curve) [3]: ~5 nM | EC50 (read off the curve) [1]: ~2 nM | EC50 (read off the curve) [4]: ~5 nM

B3: Alphabody MB23_hiR-V5 (designed binder)
chain: MSIEQIQKEITTIQEVIAAIQKYIYTMTGGSGGSGGMSIQQIQAAIRRIQRAIRRIQRAIRRMTGSGGGGSGMSIEEIQKQIAAIQEQIVAIYKQIMAMASHHHHHHGKPIPNPLLGLDST
notes: Cationized Alphabody directed against IL-23, with His-tag and V5 tag; Used as control in the BCL-2 family ELISA; also called cationized MB23; control Alphabody MB23-hiR-V5
binding result [1]: no binding (tested: 200 nM)
